Assay results: publication PMC11875312, “Hidden Structural States of Proteins Revealed by Conformer Selection with AlphaFold-NMR” (Research Square, 2025)

Target: the molecule itself
Test: solution NMR structure (AlphaFold-NMR: AFsample models selected against NOESY and chemical shift data); homodimer models of CDK2AP1(61-115) scored against NOESY peak lists (including 3D X-filtered NOESY on a mixed sample of 50% [15N,13C]-labeled and 50% unlabeled CDK2AP1, recorded earlier, ref. 47; 124 further peaks picked here) and chemical shifts (BMRB 16808); validated by NOESY Double Recall

B1: Cyclin-Dependent Kinase 2-Associated Protein 1 (residues 61-115) (domain or fragment, human, UniProt O14519 61-115, looked up)
chain: SKYAELLAIIEELGKEIRPTYAGSKSAMERLKRGIIHARGLVRECLAETERNARS
notes: Cyclin-Dependent Kinase 2-Associated Protein 1 (CDK2AP1), human, residues 61-115, the homodimeric four-helix bundle; The methods mention newly assigned H58 - K62 resonances, so the sample may carry residues (perhaps of a tag) before residue 61; also called CDK2AP1; CDK2AP1_(61–115)
- binding result: binds
